Measured values published in paper PMC6416337.

Molecular target: 14-3-3λ (UniProt P48349)
Assay: GST pull-down, anti-14-3-3 blot
Settings: reference: SOS2-JD without PKS5; sites S294

binding against the reference: stronger
Substance: SOS2 junction domain (SOS2-JD) (from UniProt Q9LDI3) SOS2-JD incubated with PKS5 and ATP
